How the values were obtained:
mouse bone marrow cells = experiment: Proliferation of mouse bone marrow cells; assay type: cell-based; details: data not shown
Procedure: Stable Ba/F3 cells expressing porcine CSF-1R were maintained in culture with complete RPMI supplemented with either 10^4 Units/ml rh-CSF-1 or 10% IL-3 conditioned medium prior to MTT assay. 2×10^4 cells/well (Ba/F3 cells and Ba/F3 transfectants), or 5×10^4 cells/well (pig BMM) of a 96 well plate were plated in triplicate or quadruplicate and appropriate treatment (serial dilutions of rh-CSF-1 or porcine Fc CSF-1 were added to make a total volume of 100 μl per well. Cells were incubated for 48 hours at 37° C. with 5% CO2. For Ba/F3 cells, 10 μl of MTT (Sigma Aldrich M5655) stock solution (5 mg/ml) was added directly to each well to achieve a final concentration of 0.5 mg/ml and incubated at 37° C. for 3 hours prior to solubilisation overnight. For adherent mouse BMM cells, culture medium was replaced with 50 μl of 1 mg/ml MTT solution and incubated for 1 hour at 37° C. MTT solution was removed and tetrazolium salt solubilised with 100 μl of solubilisation agent (0.1M HCL, 10% Triton x-100 and isopropanol) followed by incubation at 37° C. with 5% CO2 for 10 minutes. Plates were read at 570 nm with reference wavelength of 405 nm.
Mice were injected with Fc-CSF-1 subcutaneously on each of 4 days and sacrificed on the 5th day. The mice were csf1r-EGFP (MacGreen) mice on the C57BI/6 background. […]

weaner pigs = experiment: Preliminary experiment on weaners, circulating monocytes; assay type: in vivo, pig; details: three treatments with 0.4 mg/kg every alternative day
Procedure: Note that the peak plasma level obtained is only around 100 ng/ml, and it is completely cleared by 20 hours. By contrast, Fc-CSF-1 (FIGS. 9B and C) attains 100-fold higher plasma concentrations and remains elevated for up to 72 hours. A preliminary experiment on weaners determined that three treatments with 0.4 mg/kg with Fc-CSF-1 every alternative day produced a 2-3 fold increase in circulating monocyte numbers.

Pig PK (plasma ELISA) = assay type: in vivo; details: weaner pigs; 1.2 mg/kg IV and SC
Procedure: Porcine CSF-1 Fc-fusion plasma levels were detected using an in-house developed conventional sandwich ELISA utilizing commercially available antibodies. Capture antibody was Abcam ab9693 (0.3 μg/mL) and detection antibody was Rabbit anti-pig IgG (Fc) biotinylated Alpha Diagnostic 90440 (1:5000 dilution). Standard protein was generated and purified in-house (lot 2/24/11 JAS). Standards were added to each plate along with the samples resulting in an 11 point standard range of 2700 ng/mL to […]. This allowed for quantitation of each sample to a standard curve on every assay plate. Assay detection was done using Pierce High Sensitivity Streptavidin-HRP (1:10,000 dilution) and TMB Microwell Peroxidase Substrate System solution (KPL).
Weaner age barrows (<14 kg) were assigned to three treatment groups receiving a single intravenous (IV) or subcutaneous (SC) dose as follows. Three pigs received 0.5 mg/kg CSF-1 non-fusion dosed SC. Two pigs received 1.2 mg/kg CSF-1:Fc fusion dosed IV. Two pigs received 1.2 mg/kg CSF-1:Fc dosed SC. One ml plasma samples were obtained via the V. jugularis in EDTA anticoagulant tubes and placed on ice until centrifuged. The plasma was transferred to sterile tubes stored at ≤−10° C. until analysis. Serial plasma samples were obtained from each animal at pre-dose and 5 minutes, 30 minutes, 1 hour, 2 hours, 4 hours, 6 hours, 8, hours, 24 hours, 48 hours, and 72 hours post-dose. CSF-1 and CSF-1:Fc fusion protein levels were quantitated in plasma using ELISA assays.

male C57BI6 mice = experiment: Paracetamol intoxication in mice; assay type: in vivo, mouse; details: administered 12 hours following paracetamol intoxication; Day 4
Procedure: Forty-eight male C57BI6 mice aged 10-12 weeks underwent either 2/3 partial hepatectomy, paracetamol intoxication or chronic liver injury plus 2/3 partial hepatectomy. 2/3 partial hepatectomy was performed by ligating the left lobe and left and right median lobes. Paracetamol intoxication was performed by intraperitoneal administration of 350 mg/kg paracetamol dissolved in phosphate buffered saline (PBS). Chronic liver injury plus 2/3 partial hepatectomy was performed by eight weeks intraperitoneal carbon tetrachloride administration 1 mcl/g twice weekly dissolved in olive oil followed by ⅔ partial hepatectomy as described above. […] Control mice (n=8 per injury model) received subcutaneous PBS of appropriate volume. All mice were culled on day 4 following injury (partial hepatectomy or paracetamol intoxication).
Following a midline laparotomy the liver was excised and weighed. Liver weight to body weight ratio was calculated and expressed as a percentage. Livers were fixed in 4% formalin overnight then transferred to 70% ethanol. Livers were then embedded in paraffin blocks and 4 μm sections cut. Immunohistochemistry for Ki67 (a marker of cellular proliferation expressed throughout the cell cycle) was performed following heat mediated antigen retrieval in Tris/EDTA solution at pH9. Hepatocyte proliferation was quantified by counting ki67 positive hepatocytes in 20 high powered fields (400×) per animal and the mean calculated.
Hepatic CSF1 gene expression was assessed in mice following paracetamol intoxication (350 mg/kg paracetamol IP following overnight fast) at time points up to 4 days, showing peak CSF1 gene expression at day 2 (FIG. 14A).

C57BI6 male mice = experiment: Hepatic phagocytic ability after paracetamol intoxication (gene analysis, bead clearance assay, ex vivo imaging); assay type: in vivo, mouse
Procedure: C57BI6 male mice (8-10 weeks) underwent either partial hepatectomy (⅔ resection) or paracetamol intoxication (350 mg/kg intraperitoneal following overnight fast). CSF1-Fc was administered as previous (0.75 mg/kg). Gene analysis was performed using Qiagen Quantitect Primers (MSR1 and MARCO) and related to GAPDH level for each sample. […] 0.1 mls of 5000 IU/ml heparin solution was infused to prevent blockage of the catheter. 100 μl of red fluorescent bead solution (1:5 Latex beads 1.0 μm, fluorescent red, SIGMA-ALDRICH®) was infused through the cannula (1:2 solution for assay following paracetamol injury). 20 mcl of blood was removed from the cannula every two minutes starting from 1 minute post injection for 15 minutes. Blood was immediately fixed with 300 μl FACS-Lysing solution (BD Biosceinces). After 15 minutes mice were perfused with 15 mls 0.9% saline through the IVC cannula after dividing the portal vein for outflow. Organs were then removed (Liver, spleen, lungs, kidney, brain) and imaged with a Kodak In-Vivo Multispectral FX image station (Excitation: 550 nm; Emission: 600 nm; Exposure 1 sec; f-stop 2.8). Subsequently blood samples were analysed using a LSR-Fortessa™ flow cytometer (BD Biosciences) with fluorescent beads detected on the blue channel (B695/40) by a 1 minute sample collection on low flow rate setting.

[1] = day 2 following paracetamol intoxication

B1: Fc-CSF-1: active fragment of porcine CSF-1 (SEQ ID NO:1) linked to the hinge-CH3 region of porcine IgG1a (SEQ ID NO:2) (protein, listed as Sus scrofa)
chain: SENCSHMIGDGHLKVLQQLIDSQMETSCQIAFEFVDQEQLTDPVCYLKKAFLQVQDILDETMRFRDNTPNANVIVQLQELSLRLNSCFTKDYEEQDKACVRTFYETPLQLLEKIKNVFNETKNLLKKDWNIFSKNCNNSFAKCSSQHERQPEGRGTKTKPPCPICPGCEVAGPSVFIFPPKPKDTLMISQTPEVTCVVVDVSKEHAEVQFSWYVDGVEVHTAETRPKEEQFNSTYRVVSVLPIQHQDWLKGKEFKCKVNNVDLPAPITRTISKAIGQSREPQVYTLPPPAEELSRSKVTVTCLVIGFYPPDIHVEWKSNGQPEPEGNYRTTPPQQDVDGTFFLYSKLAVDKARWDHGETFECAVMHEALHNHYTQKSISKTQGK
biological activity (proliferation) compared with recombinant pig CSF-1 (mouse bone marrow cells): no difference in biological activity | increase in circulating monocyte numbers (weaner pigs): 2-3 fold | plasma concentrations relative to unmodified CSF-1 (Pig PK (plasma ELISA)): 100 fold | time plasma level remains elevated (Pig PK (plasma ELISA)): up to 72 hours | hepatocyte proliferation (male C57BI6 mice): increasing | liver weight to body weight ratio (male C57BI6 mice): significantly increasing | MARCO gene expression, whole liver (C57BI6 male mice; [1]): upregulation | MSR1 (macrophage scavenger receptor 1) gene expression, whole liver (C57BI6 male mice; [1]): upregulation | clearance of latex microbeads from the circulation (C57BI6 male mice; paracetamol model): did not notice enhanced clearance | hepatic fluorescence, ex vivo imaging (C57BI6 male mice; paracetamol model): significant increase
